# Source: publication PMC12130793, “A conserved aspartate residue in [4Fe-4S]-containing HypD is required for [NiFe]-cofactor biosynthesis and for efficient interaction of the HypCD scaffold complex with HypE” (Metallomics: Integrated Biometal Science, 2025)
# B1: HypD (native, untagged) (natural protein, E. coli, UniProt P24192 1-373, looked up)
# chain: MRFVDEYRAPEQVMQLIEHLRERASHLSYTAERPLRIMEVCGGHTHAIFKFGLDQLLPENVEFIHGPGCPVCVLPMGRIDTCVEIASHPEVIFCTFGDAMRVPGKQGSLLQAKARGADVRIVYSPMDALKLAQENPTRKVVFFGLGFETTMPTTAITLQQAKARDVQNFYFFCQHITLIPTLRSLLEQPDNGIDAFLAPGHVSMVIGTDAYNFIASDFHRPLVVAGFEPLDLLQGVVMLVQQKIAAHSKVENQYRRVVPDAGNLLAQQAIADVFCVNGDSEWRGLGVIESSGVHLTPDYQRFDAEAHFRPAPQQVCDDPRARCGEVLTGKCKPHQCPLFGNTCNPQTAFGALMVSSEGACAAWYQYRQQESEA
# notes: Carries a [4Fe-4S] cluster; also called native HypD; WT HypD; source: E. coli BL21(DE3), co-expressed with HypC-Strep (phypDC) or with HypE, HypF and HybG-Strep (phypDEF-hybG); co-purified anaerobically
# B2: HypC bearing a C-terminal StrepII-tag (natural protein, E. coli, UniProt P0AAM3 1-90, looked up)
# chain: MCIGVPGQIRTIDGNQAKVDVCGIQRDVDLTLVGSCDENGQPRVGQWVLVHVGFAMSVINEAEARDTLDALQNMFDVEPDVGALLYGEEK
# notes: HypC, hydrogenase maturation factor of E. coli; native HypC; also called HypC-Strep; Strep-tagged HypC; source: E. coli BL21(DE3) transformed with phypDC or phypD_(D98A)hypC, purified anaerobically (Strep tag); not shown: StrepII, C-terminal, kept
# B3: HypD_(D98A) (untagged) (natural protein, E. coli, UniProt P24192 1-373, looked up)
# chain: MRFVDEYRAPEQVMQLIEHLRERASHLSYTAERPLRIMEVCGGHTHAIFKFGLDQLLPENVEFIHGPGCPVCVLPMGRIDTCVEIASHPEVIFCTFGAAMRVPGKQGSLLQAKARGADVRIVYSPMDALKLAQENPTRKVVFFGLGFETTMPTTAITLQQAKARDVQNFYFFCQHITLIPTLRSLLEQPDNGIDAFLAPGHVSMVIGTDAYNFIASDFHRPLVVAGFEPLDLLQGVVMLVQQKIAAHSKVENQYRRVVPDAGNLLAQQAIADVFCVNGDSEWRGLGVIESSGVHLTPDYQRFDAEAHFRPAPQQVCDDPRARCGEVLTGKCKPHQCPLFGNTCNPQTAFGALMVSSEGACAAWYQYRQQESEA
# notes: HypD of E. coli with the D98A exchange, without a tag; source: co-purified anaerobically
# Key:
# [1] = target: B2; experiment: native MS; anaerobically purified HypC-Strep/HypD complexes buffer-exchanged into 500 mM ammonium acetate, pH 6.8, about 10 uM; nano-ESI Q-TOF; MS/MS with collision-induced dissociation (90 V) of the +12 charge state of the heterodimer; details: both partners purified
# HypD (native, untagged) = target: B1; experiment: pull-down; co-purification from BL21(DE3) cells by the StrepII tag (on HypD, HypC or HybG) under anoxic conditions; 5 ug of isolated protein on SDS-PAGE, immunoblot with anti-HypD or anti-HypE antiserum (1:1000); details: partners not purified
# HypD_(D98A) (untagged) = target: B3; experiment: as above; details: partners not purified
Binder,stoichiometry N [1],"binding result (HypD (native, untagged))",binding result (HypD_(D98A) (untagged))
B1,1 ratio HypC:HypD,,
B2,,binds,binds
B3,1 ratio HypC:HypD,,
